{
  "source": "the DeepSol protein solubility set",
  "data": [
    {"experiment": "soluble on expression in E. coli; label from the status in PepcDB or PDB records", "values": [
      {"sequence": "MSLIAVLRINHRPFRDKRITTHVALTARAFGASSILVDEKDETLEQTINKVVENFGGNFFIKSGVDWKREFRNFKGIRVHLTMYGRPLEDVVKEIRESKKDVMILVGSEKVPFEAYEIADYNVSVTNQPISEVSALAIFLDRFYDGEELNWRFTGKINVYPSERGKKVKIIPDEQGCLDLLYKYGASDYLINHVKSVKELAVAIAKKTNADINLVTAGALLHDIGRTQVQGITHAVVGADILRREGIDDRVVSIVEKHIGAGIQSEEAVKLGLPPDNYVPETIEEMIVAHADNLFAGDKRLKLQQVVDNYRKKGLEDAAERIAKLHKFLSTVIGQDMDEIEGHHHHHH", "soluble on expression in E. coli": "soluble"},
      {"sequence": "MNIDTRIKFRHLVCFLEVARQGSLARASDALAISQPALSKSLKELETLLATTLFVRSKSGAALTDAGVAFMRFAGPSVQALRDGVSSLRSGEHETVTARLGVLSTAESLLVPEVVKRLHTRHPALIVSVMTGPSAYLLSQLRVGELDLVVGRMTDSPQIQGLTFEHLYHESMTLVVRNDHPLLAAPLKRESLEQFPLVLPLAGTTIRKFADSLFVQCGIQMPRQRLETLSLTLSRRYVQCSNAIWIAPLDAVLLELKGGTLVELDMGIREPGGSVGLCSNPALPLTRAAQWCVDELRTVGAAYREGQYA", "soluble on expression in E. coli": "not soluble"},
      {"sequence": "TQVYKAKFGTPNRGWVIIVHGLGEHSGRYSKLVSMLVNEGYAVYTFDWPGHGKSPGKRGHTSVEEAMEIIDFIIEEINDKPFLFGHSLGGLTVIRYAETRPEKIRGVIASSPALAKSPKTPSFMVALAKILGVLLPSLTLSNGIDPNLLSRNPDAVKRYIEDPLVHDRISAKLGRSIFKNMDLAHREAHKIKVPVLLLVGTGDVITPPEGARKLYGEIKVEDKEIVEFEGAYHEIFEDPEWGEEFHKKIVEWIKKH", "soluble on expression in E. coli": "not soluble"},
      {"sequence": "MPFCPEEFYCRITQNIESLNNIAKIQHAANTDYLTDLANRRAFFRSAESRIKEYINKKVPYCLAMIDVDFFKKVNDTYGHDSGDQVLKVIALYMRKHFGAGLTARLGGEEFAVLLHGLDADYLHNKLDDFRREIAVSSIPAGDTSISITLSLGVVFDSEDELSKQMNEADNALYAAKENGRNQIVVFGAELDDLEHHHHHH", "soluble on expression in E. coli": "not soluble"},
      {"sequence": "AMLAELTHRCPLACPYCSNPLALHGKARELDTQTWARAFDEAAALGVLQLHLSGGEPASRPDLVELTRAAHEAGLYTNLITSGIGLTPARLDALEAVGLDHIQLSLQGTTPDLADRIGGYKGGFARKMAVAAEIKARGIPLTLNAVMHRHNLDDLERTIELAIELGARRLEVACVQFHGWATRNRAALLPSRAQTEAAKRIVAEAEARLRGTLAFDFVPPDYYADYPKACMGGWGSAGLNIAPDGTVLPCHAA", "soluble on expression in E. coli": "not soluble"},
      {"sequence": "EGPIDKLKTPEDVPNDPLPLISDFEWSTLDIDDNLQLDELYKLLYDNYVEDIDATFRFKYSHEFFQWALKPPGWRKDWHVGVRVKSTGKLVAFIAATPVTFKLNKSNKVIDSVEINFLCIHKKLRNKRLAPVLIKEITRRVNKQNIWQALYTGGSILPTPLTTCRYQHRPINWSKLHDVGFSHLPPNQTKSSMVASYTLPNNPKLKGLRPMTGKDVSTVLSLLYKYQERFDIVQLFTEEEFKHWMLGHDENSDSNVVKSYVVEDENGIITDYFSYYLLPFTVLDNAQHDELGIAYLFYYASDSFEKPNYKKRLNELITDALITSKKFGVDVFNCLTCQDNTYFLKDCKFGSGDGFLNYYLFNYRTFPMDGGIDKKTKEVVEDQTSGIGVVLL", "soluble on expression in E. coli": "soluble"},
      {"sequence": "MAHHHHHHMGRASKDKRDIYYRKAKEEGYRARSAYKLLQLHEEFGILRREEIRTGVVDLCAAPGSWSQVLSNHLCGSQPGSAAEACEGDEAINSEASQRPRIVAVDLQEMMPIDGVQLLQGDITSEWTAREIIRLLNGDSSSVPECSDATALSTAGAINDFNNGRGNNVSEEGKSSQQRSDCGVGLMNERNNASECVDGDNNNNNSNNNDDRNGGDAGASTRPVAGRKADLVVCDGAPDVTGMHELDEYLQHHLLLAALNITTFVLRRGGTFVTKMFRGPNTPFLVAKAEVFFRQVTIAKPKSSRNASMEAFMVCQNYDPPASYQPSFERPLTQTTSCFTPAAPALHLAAVDAQRMSSDNVNNGELHHSGVTDIVDEAYAVESVIVPFLACGDLTGYDADMCYDRGESDVVLPPVQPPLQAPYIAISEAVKERTKRQRVG", "soluble on expression in E. coli": "not soluble"},
      {"sequence": "MKITVLGCGALGQLWLTALCKQGHEVQGWLRVPQPYCSVNLVETDGSIFNESLTANDPDFLATSDLLLVTLKAWQVSDAVKSLASTLPVTTPILLIHNGMGTIEELQNIQQPLLMGTTTHAARRDGNVIIHVANGITHIGPARQQDGDYSYLADILQTVLPDVAWHNNIRAELWRKLAVNCVINPLTAIWNCPNGELRHHPQEIMQICEEVAAVIEREGHHTSAEDLRDYVMQVIDATAENISSMLQDIRALRHTEIDYINGFLLRRARAHGIAVPENTRLFEMVKRKESEYERIGTGLPRPWLEHHHHHH", "soluble on expression in E. coli": "not soluble"},
      {"sequence": "MIYTVTLNPSIDYVVQVNSLDLGAVNRAEKDMKFPGGKGINVSRVLHRLGVENVALGFTGGFTGRFIKDVLQTEGVITNFVQVDGDSRINVKIKGQEETELNGQGPSVTNEQFEQLMKQIESMQKGDYVVLAGSVPASIPTTFYESIAAFGAEKGIRVVVDASGSALQHVVKNKPFLIKPNHHELGELFGVEISTAEDILPYGRKLIEQGVEHVIVSMAGDGALLFTAEGIYEATVPKGVVINSVGAGDSLVAGFVGKYEQTKDIEKAFQYGVATGSATAFSADLCEKEKVEELLSQVIVTKR", "soluble on expression in E. coli": "not soluble"},
      {"sequence": "MQNDNHSTAQPEKDVARLTEEVREAIAHGGDIENAIRNLTLKAMHSNGLDIESLKQIATAVMKGVQEGAQQKMTHAAEQSHAAQSQITQAVVGLDTAFAQLAGASKLALEEAASKAKQFSDSELTKAQADLKDLESVFLDTLKHTATAAQGLIAETLRDMLSHAQHNGTAVGMQLKDTLAVFAHQMASTGRAQFEAGVKLTQTTADLLYKISTGVLSGITSQTNRDDK", "soluble on expression in E. coli": "not soluble"},
      {"sequence": "MSLHVLTLAIARAASIDELALAANKQRELVESLMSRGVRTRFVMELIAAVNEQIIEKAFELVVPPALHDQCCLVVLGSEGRGEQILKTDQDNALIIQDGLEWHQCQPIMETLTHTLLQLGYPLCPGKVMVNNPKWVRSQSDWKRTLTDWVKAARPEQVMDIAIFADAHAVAGNRALLAPVKAHLQHLMAGQELILAEFTRPALNFSVPLTLFGNVKSSKQGIDIKQGGIFPIVHGVRALSLEHAIDANNTFDRIEALVKKRVLEQETGDNLSEAFKLFLKLRLAQQLGNQHSTNQLDFKQLDRTERDLLRHSLHVVKKFKQWLGYHYQIRDEGHHHHHH", "soluble on expression in E. coli": "soluble"},
      {"sequence": "MSLGEVCEIMQAYGGVSIVNALPSWYGSSMAINLKVKVEIREGKRVYSQESELIKTILNYFKEKYSIPDIEVDIESELPQKSGLKSSSAVSVALIAEIAKQYDLRNINPPILSAILSLKAGVSYTGALDDAVASYCGGIAFTYNKMFRIVKLENLEDNLSILILAKGGRQKPVNLNELRKYSHVFEEIFKIALKDYLTAMKMNGILIANILGYSLEPIEIALKKGALAAGISGNGPSYFAVSKNGEEGPIYESLKKFGDVIIVRPVSLDCKDLSIKEGHHHHHH", "soluble on expression in E. coli": "not soluble"},
      {"sequence": "MNSQTTKDIPCFRSYLPDALRLRFEDKLTIRAIAQRLGLSHSTIHTLFQRFLASGIAWPLPDSVSFAQLDAILYANRKKELTEPQIREGSWRKERRTSYSREFKVRLAKQALQPGAVVARIAREHDINDNLLFKWKSQYEDGLLSDDDIQECMPVPVALTDTPEPTRPVTNPFWRNKHDERPEGAPGNVPRCELHLKSGVVKLFDPLTPELLRALIREMKGGIRLEHHHHHH", "soluble on expression in E. coli": "soluble"},
      {"sequence": "MEAVRPDSCESGPAAPRAEERPAPEARVHFRVTRFIMEAGVKLGMQSIPIATACTIYHKFFCEINLDAYDLYLVAMSSIYLAGKVEEQHLRTRDIINVSHRYFNPGSEPLELDSRFWELRDSIVQCELLMLRVLRFQVSFQHPHKYLLHYLISLKNWLNRYSWQRTPISVTAWALLRDSYHGGLCLRFQAQHLAVAVLYLALQVYGVEVPAEGEAEKPWWQVFSDDLTKPIIDNIVSDLIQIYTMDTEIP", "soluble on expression in E. coli": "not soluble"},
      {"sequence": "SQHFGRPRTTHEFLFGALAELVDNARDADATRIDIYAERREDLRGGFMLCFLDDGAGMDPSDAASVIQFGKSAKRTPESTQIGQYGNGLKSGSMRIGKDFILFTKKEDTMTCLFLSRTFHEEEGIDEVIVPLPTWNARTREPVTDNVEKFAIETELIYKYSPFRTEEEVMTQFMKIPGDSGTLVIIFNLKLMDNGEPELDIISNPRDIQMAETSPEGTKPERRSFRAYAAVLYIDPRMRIFIHGHKVQTKRLSCCLYKPRMYKYTSSRFKTRAEQEVKKAEHVARIAEEKAREAESKARTLEVRLGGDLTRDSRVMLRQVQNRAITLRREADVKKRIKEAKQRALKEPKELNFVFGVNIEHRDLDGMFIYNCSRLIKMYEKVGPQLEGGMACGGVVGVVDVPYLVLEPTHNKQDFADAKEYRHLLRAMGEHLAQYWKDIAIAQRGIIKFWDEFGYLSANWNQPPSSELRYKRRRAMEIPTTIQCDLCLKWRTLPFQLSSVEKDYPDTWVCSMNPDPEQDRCEASEQKQKVPLGTFRKDMKTQEEKQKQLTEKIRQQQEKLEALQKTTPIRSQADLKKLPLEVTTRPSTEEPVRRPQRPRSPPLPAVIRNAPSRPPSLPTPRPASQPRKAPVISSTPKLPALAAREEASTSRLLQPPEAPRKPANTLVKTASRPAPLVQQLSPSLLPNSKSPREVPSPKVIKTPVVKKTESPIKLSPATPSRKRSVAVSDEEEVEEEAERRKERCKRGRFVVKEEKKDSNELSDSAGEEDSADLKRAQKDKGLHVEVRVNREWYTGRVTAVEVGKHVVRWKVKFDYVPTDTTPRDRWVEKGSEDVRLMKPPSPEHQSLDTQQEGGEEEVGPVAQQAIAVAEPSTSECLRIEPDTTALSTNHETIDLLVQILRNCLRYFLPPSFPISKKQLSAMNSDELISFPLKEYFKQYEVGLQNLCNSYQSRADSRAKASEESLRTSERKLRETEEKLQKLRTNIVALLQKVQEDIDINTDDELDAYIEDLITKGD", "soluble on expression in E. coli": "soluble"},
      {"sequence": "MMISIFSLLASTAILVFANGQSNVKLEFVQAMWRHGERASQVDQYPIYEKDWIYGGGGLGELTAIGMGEMNELGWLIRKRYVTKLKFLTPKYASREVYFRSTNFNRTIISAQSLLYGLFPPSLYDVKNVDYPYSPLTWFPGFTFVPVHVDGPDQCAASQNCPCTRYDLLQGQMLTLPEVLPKYTQVVLLNRRVGGYYNMTSGLDSFTTYPDTWKCQRAYFNRTMYAKLPWYNEELYYQAQVTYAPVKGFLEGNFENPAVTSSGLDVGLEIKKVRSGVIINEVFNRANEKLNCAELGQNCTSYLNKLKFYGYSIHDNNVYGVLVALGIPQIANTLDGWPAYAAGIFMEFHRNTSTNERFFKVLYREGDDTPISDVTSQLPICNGATLCPLGALQTLAETLKPLPDITTLCKTPL", "soluble on expression in E. coli": "not soluble"}
    ]}
  ]
}
